The values that follow come from patent US6326466A, “Double-stranded RNA dependent protein kinase derived peptides to promote proliferation of cells and tissues in a controlled manner” (priority 1999, dated 2001).

Data set [1] deals with T1, PKR (dsRNA-dependent protein kinase) (Oryctolagus cuniculus) (UniProt Q287T5).
T1 sequence: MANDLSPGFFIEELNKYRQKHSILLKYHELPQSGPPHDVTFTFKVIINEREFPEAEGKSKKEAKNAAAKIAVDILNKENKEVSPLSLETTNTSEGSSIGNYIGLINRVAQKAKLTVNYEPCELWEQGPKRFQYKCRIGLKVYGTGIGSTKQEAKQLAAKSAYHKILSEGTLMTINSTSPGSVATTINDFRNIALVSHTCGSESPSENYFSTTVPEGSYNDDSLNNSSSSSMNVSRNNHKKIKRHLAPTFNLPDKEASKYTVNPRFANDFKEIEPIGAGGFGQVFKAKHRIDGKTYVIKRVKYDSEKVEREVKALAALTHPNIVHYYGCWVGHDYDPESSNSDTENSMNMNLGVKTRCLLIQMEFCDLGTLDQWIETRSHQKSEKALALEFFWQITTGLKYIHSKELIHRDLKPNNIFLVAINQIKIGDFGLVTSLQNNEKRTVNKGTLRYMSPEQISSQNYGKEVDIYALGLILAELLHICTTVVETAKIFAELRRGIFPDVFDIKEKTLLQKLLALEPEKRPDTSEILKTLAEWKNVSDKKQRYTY
The data set is described as follows: competition. The following applies: unlabeled poly(I)-poly(C) 80 ug/ml as competitor to TAR RNA.

The next data set concerns 3T3442A cells. Format: cell-based. The conditions noted are these: one hour at 37EC. The protocol:
A PKR peptide antagonist (50 μg) having the sequence […] (SEQ ID NO: 25) comprising a cell permeability subsequence (residues 1-16 of SEQ ID NO:25), a heme agglutinin-epitope tag subsequence (residues 17-25 of SEQ ID NO:25), and a PKR peptide antagonist subsequence (residues 26-46 of SEQ ID NO:25) was radiolabeled with [^125 I]-iodine by the chloramine-T method (Hunter, W. M. and Greenwood, F. C. Nature 194:495-496, 1962) and purified by size exclusion chromatography using BioGel P2 (BioRad, Inc.) 35 million CPM of radiolabeled PKR peptide was added to pre-confluent cultures of 3T3442A cells grown in medium containing 10% FBS. After 1 hour at 37° C., the media was aspirated and the cells were washed four times in phosphate buffered saline (PBS). Cells were removed from the culture dishes by scraping and collected by centrifugation (4EC, 750×g, 5 min). The wash buffer was removed and the cell pellet was dissolved in SDS-polyacrylamide gel buffer (Laemmli, Nature (London), 227:680-685, 1970). The sample was analyzed by SDS-tricine polyacrylamide gel electrophoresis using 4-20% gradient tricine-SDS gels and the radiolabeled peptide antagonist was visualized by autoradiography of dried gels. […]
The subcellular localization of the PKR peptide antagonist (SEQ ID NO:25) that had been internalized by 3T3442A cells was determined by confocal microscopy. […]

Ends that are not written are not given here.

In turn, poly(I)-poly(C) returned a binding signal (% inhibition of TAR complex) in data set [1] of 60.
“AAVALLPAVLLALLAPYPYDVPDYAKKEAKNAAAKLAVEILNKEKK [SEQ ID NO:25]”: the “subcellular localization of internalized peptide (confocal microscopy, anti-HA)” value in the data set with 3T3442A cells is reported as “obvious, intense localization of the epitope-tagged peptide to the cell cytoplasm”.
